According to the supplement of paper PMC11246515:
± gives the standard deviation of the averaged measurements.

Experiment: total protein half-life in vivo (active degradation + dilution); higher = more stable protein
[1] = E. coli NCM3722 delta-clpP delta-lon delta-hslV, growth: N-lim chemostat, doubling time 6 h
[2] = E. coli NCM3722 delta-smpB, growth: N-lim chemostat, doubling time 6 h
[3] = wild type E. coli NCM3722, growth: N-lim chemostat, doubling time 12 h
[4] = E. coli NCM3722 delta-clpP, growth: N-lim chemostat, doubling time 6 h
[5] = E. coli NCM3722 delta-hslV, growth: N-lim chemostat, doubling time 6 h
[6] = wild type E. coli NCM3722, growth: C-lim chemostat, doubling time 3 h
[7] = wild type E. coli NCM3722, growth: C-lim chemostat, doubling time 6 h
[8] = wild type E. coli NCM3722, growth: C-lim chemostat, doubling time 12 h
[9] = wild type E. coli NCM3722, growth: N-lim chemostat, doubling time 6 h
[10] = wild type E. coli NCM3722, growth: P-lim chemostat, doubling time 6 h
[11] = wild type E. coli NCM3722, growth: P-lim chemostat, doubling time 12 h
[12] = E. coli NCM3722 delta-lon, growth: N-lim chemostat, doubling time 6 h

Row | Sequence | total protein half-life in vivo [1] [h] | total protein half-life in vivo [2] [h] | total protein half-life in vivo [3] [h] | total protein half-life in vivo [4] [h] | total protein half-life in vivo [5] [h] | total protein half-life in vivo [6] [h] | total protein half-life in vivo [7] [h] | total protein half-life in vivo [8] [h] | total protein half-life in vivo [9] [h] | total protein half-life in vivo [10] [h] | total protein half-life in vivo [11] [h] | total protein half-life in vivo [12] [h]
1 | MKAVSRVHITPHMHWDREWYFTTEESRILLVNNMEEILCRLEQDNEYKYYVLDGQTAILEDYFAVKPENKDRVKKQVEAGKLIIGPWYTQTDTTIVSAESIVRNLMYGMRDCLAFGEPMKIGYLPDSFGMSGQLPHIYNGFGITRTMFWRGCSERHGTDKTEFLWQSSDGSEVTAQVLPLGYAIGKYLPADENGLRKRLDSYFDVLEKASVTKEILLPNGHDQMPLQQNIFEVMDKLREIYPQRKFVMSRFEEVFEKIEAQRDNLATLKGEFIDGKYMRVHRTIGSTRMDIKIAHARIENKIVNLLEPLATLAWTLGFEYHHGLLEKMWKEILKNHAHDSIGCCCSDKVHREIVARFELAEDMADNLIRFYMRKIADNMPQSDADKLVLFNLMPWPREEVINTTVRLRASQFNLRDDRGQPVPYFIRHAREIDPGLIDRQIVHYGNYDPFMEFDIQINQIVPSMGYRTLYIEANQPGNVIAAKSDAEGILENAFWQIALNEDGSLQLVDKDSGVRYDRVLQIEESSDDGDEYDYSPAKEEWVITAANAKPQCDIIHEAWQSRAVIRYDMAVPLNLSERSARQSTGRVGVVLVVTLSHNSRRIDVDINLDNQADDHRLRVLVPTPFNTDSVLADTQFGSLTRPVNDSAMNNWQQEGWKEAPVPVWNMLNYVALQEGRNGMAVFSEGLREFEVIGEEKKTFAITLLRGVGLLGKEDLLLRPGRPSGIKMPVPDSQLRGLLSCRLSLLSYTGTPTAAGVAQQARAWLTPVQCYNKIPWDVMKLNKAGFNVPESYSLLKMPPVGCLISALKKAEDRQEVILRLFNPAESATCDATVAFSREVISCSETMMDEHITTEENQGSNLSGPFLPGQSRTFSYRLA | 6.07 | 1.754 ± 0.011 | 3.4 |  |  |  |  |  |  |  |  | 
2 | MNYEIKQEEKRTVAGFHLVGPWEQTVKKGFEQLMMWVDSKNIVPKEWVAVYYDNPDETPAEKLRCDTVVTVPGYFTLPENSEGVILTEITGGQYAVAVARVVGDDFAKPWYQFFNSLLQDSAYEMLPKPCFEVYLNNGAEDGYWDIEMYVAVQPKHH | 4.8 ± 0.93 | 4.26 ± 1.8 | 4.89 ± 0.49 | 2.75 | 3.39 ± 0.23 | 2.22 ± 0.21 | 3.9 ± 0.048 | 5.57 ± 0.35 | 3.16 | 2.6 | 6.49 ± 0.56 | 
3 | MRILVLGVGNILLTDEAIGVRIVEALEQRYILPDYVEILDGGTAGMELLGDMANRDHLIIADAIVSKKNAPGTMMILRDEEVPALFTNKISPHQLGLADVLSALRFTGEFPKKLTLVGVIPESLEPHIGLTPTVEAMIEPALEQVLAALRESGVEAIPREAIHD | 5.25 ± 0.57 | 3.53 ± 0.16 | 6.81 ± 0.15 | 4.51 ± 0.38 | 4.14 ± 0.58 | 3.09 ± 0.27 | 5.7 ± 1.1 | 11.5 ± 0.37 | 4.28 ± 0.7 | 6.77 ± 0.8 | 11 ± 0.18 | 5.3 ± 0.96
4 | MQREDVLGEALKLLELQGIANTTLEMVAERVDYPLDELRRFWPDKEAILYDALRYLSQQIDVWRRQLMLDETQTAEQKLLARYQALSECVKNNRYPGCLFIAACTFYPDPGHPIHQLADQQKSAAYDFTHELLTTLEVDDPAMVAKQMELVLEGCLSRMLVNRSQADVDTAHRLAEDILRFARCRQGGALT [P0ACU7] | 3.74 ± 0.51 | 3.411 ± 0.028 | 5.51 ± 0.28 | 3.63 ± 0.25 | 4.07 ± 0.91 | 2.94 ± 0.46 | 4.86 ± 0.17 | 10.4 ± 2.6 | 3.44 ± 0.037 | 5.04 ± 0.78 | 12 ± 0.99 | 3.78 ± 0.57
5 | MKKAKILSGVLLLCFSSPLISQAATLDVRGGYRSGSHAYETRLKVSEGWQNGWWASMESNTWNTIHDNKKENAALNDVQVEVNYAIKLDDQWTVRPGMLTHFSSNGTRYGPYVKLSWDATKDLNFGIRYRYDWKAYRQQDLSGDMSRDNVHRWDGYVTYHINSDFTFAWQTTLYSKQNDYRYANHKKWATENAFVLQYHMTPDITPYIEYDYLDRQGVYNGRDNLSENSYRIGVSFKL | 4.55 |  |  |  |  | 3.093 ± 0.0091 | 6.86 ± 1.1 |  |  |  |  | 
6 | MSTEKEKMIAGELYRSADETLSRDRLRARQLIHRYNHSLAEEHTLRQQILADLFGQVTEAYIEPTFRCDYGYNIFLGNNFFANFDCVMLDVCPIRIGDNCMLAPGVHIYTATHPIDPVARNSGAELGKPVTIGNNVWIGGRAVINPGVTIGDNVVVASGAVVTKDVPDNVVVGGNPARIIKKL | 3.81 |  |  | > 8 | 1.77 | 3.24 ± 0.56 | 3.82 ± 0.11 | 5.15 ± 2.1 |  | > 8 | 7.59 ± 1.4 | 
7 | MITYHDAFAKANHYLDDADLPVVITLHGRFSQGWYFCFEAREFLETGDEAARLAGNAPFIIDKDSGEIHSLGTAKPLEEYLQDYEIKKATFGLP | 4.62 ± 0.3 |  |  |  |  |  |  |  |  |  |  | 
8 | MINVLLVDDHELVRAGIRRILEDIKGIKVVGEASCGEDAVKWCRTNAVDVVLMDMSMPGIGGLEATRKIARSTADVKIIMLTVHTENPLPAKVMQAGAAGYLSKGAAPQEVVSAIRSVYSGQRYIASDIAQQMALSQIEPEKTESPFASLSERELQIMLMITKGQKVNEISEQLNLSPKTVNSYRYRMFSKLNIHGDVELTHLAIRHGLCNAETLSSQ [P0AED5] | 5.39 ± 0.6 | 1.67 ± 0.048 | 2.67 ± 0.15 | 2.492 ± 0.024 | 1.84 ± 0.24 | 1.72 ± 0.12 | 3.04 ± 0.16 | 4.05 ± 0.16 | 1.89 ± 0.24 | 1.8 ± 0.087 | 3.89 ± 0.4 | 2.66 ± 0.048
